# According to IntAct's records for PubMed 25461530:
# B1: Dipeptidyl peptidase 4 (Homo sapiens), P27487 (parent)
# chain: MKTPWKVLLGLLGAAALVTIITVPVVLLNKGTDDATADSRKTYTLTDYLKNTYRLKLYSLRWISDHEYLYKQENNILVFNAEYGNSSVFLENSTFDEFGHSINDYSISPDGQFILLEYNYVKQWRHSYTASYDIYDLNKRQLITEERIPNNTQWVTWSPVGHKLAYVWNNDIYVKIEPNLPSYRITWTGKEDIIYNGITDWVYEEEVFSAYSALWWSPNGTFLAYAQFNDTEVPLIEYSFYSDESLQYPKTVRVPYPKAGAVNPTVKFFVVNTDSLSSVTNATSIQITAPASMLIGDHYLCDVTWATQERISLQWLRRIQNYSVMDICDYDESSGRWNCLVARQHIEMSTTGWVGRFRPSEPHFTLDGNSFYKIISNEEGYRHICYFQIDKKDCTFITKGTWEVIGIEALTSDYLYYISNEYKGMPGGRNLYKIQLSDYTKVTCLSCELNPERCQYYSVSFSKEAKYYQLRCSGPGLPLYTLHSSVNDKGLRVLEDNSALDKMLQNVQMPSKKLDFIILNETKFWYQMILPPHFDKSKKYPLLLDVYAGPCSQKADTVFRLNWATYLASTENIIVASFDGRGSGYQGDKIMHAINRRLGTFEVEDQIEAARQFSKMGFVDNKRIAIWGWSYGGYVTSMVLGSGSGVFKCGIAVAPVSRWEYYDSVYTERYMGLPTPEDNLDHYRNSTVMSRAENFKQVEYLLIHGTADDNVHFQQSAQISKALVDVGVDFQAMWYTDEDHGIASSTAHQHIYTHMSHFIKQCFSLP
# Variants of: B1
# Conditions: with spike_mers1 S
row,Variant,effect of a mutation on the interaction
1,K267A,disrupting interaction strength
2,K267E,disrupting interaction strength
3,Q344A,with no effect
4,R336A,decreasing interaction strength
5,L294D;I295D,disrupting interaction strength
6,L294A;I295A,disrupting interaction strength
7,R317A,decreasing interaction strength
